Laboratory results reported in patent US20220267427A1 (SYSMEX, published 2022).
Where no end group is shown, it is not given here. The star is where a group is joined. Biotin = O=C1N[C@H]2[C@H](CS[C@H]2CCCCC(=O)*)N1

T1: fCK18 in apoptosis-induced HepG2 cell culture supernatant (human, UniProt P05783 239-397)
T1 construct: Natural CK18 fragment from the culture supernatant of apoptosis-induced HepG2 cells (band around 18 KDa); also called fCK18 in apoptosis-inducing cells
T1 sequence: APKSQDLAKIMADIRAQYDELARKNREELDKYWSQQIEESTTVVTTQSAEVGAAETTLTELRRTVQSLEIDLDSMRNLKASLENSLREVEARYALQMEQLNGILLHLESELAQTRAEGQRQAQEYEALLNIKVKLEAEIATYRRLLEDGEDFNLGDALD

T2: Peptide 5 (human)
T2 peptide: Biotin-DIRAQYDELARKNREELD


Legend:
[1] = biological target: T1, fCK18 in apoptosis-induced HepG2 cell …; assay: plate ELISA with K18-624 magnetic microbeads, K18-328Fab-ALP detector
Experimental: Measurement samples of 3-fold dilution series (3-fold to 6561-fold dilution) were prepared from the apoptosis-induced HepG2 cell culture supernatant with a diluent (TBS, pH 7.5, 2% BSA), and fCK18 was measured. […] Based on the prepared calibration curve, fCK18 in the measurement sample was measured.
This solution was added to an ELISA plate at 25 μL/well, then each measurement sample was added at 25 μL/well, and the plate was incubated (1500 rpm, RT, 20 min). […] (3) After washing the plate, the HISCL (registered trademark) R4 reagent was added thereto at 50 μL/well, and then the mixture was stirred (1500 rpm, RT, 1 min). Thereafter, the HISCL (registered trademark) R5 reagent was added at 100 μL/well, and then the mixture was stirred (1000 rpm, RT, 10 sec). (4) Luminescence intensity was measured with a plate reader.

Peptide 5 = biological target: T2, Peptide 5; assay: solid phase ELISA; biotinylated peptide on plate, antibody 2 ug/ml
Experimental: (1) The peptides shown in Table 2 were synthesized, and biotin was added to the N-terminal side. (2) The synthesized peptides were dissolved in 80% DMSO solution and further diluted to 1 μg/ml with PBST. (3) After washing an ELISA plate three times with PBST, a biotinylated peptide was added thereto at 100 μL/well, and the plate was allowed to stand at room temperature for 1 hour to immobilize the peptide. Thereafter, the plate was washed three times with PBST, and Buffer I′ (10 mM NaH₂PO₄.2H₂O, 149.7 mM NaCl, 2.5 mM EDTA 2Na, 0.10% BSA, pH 7.0) was added thereto at 200 μL/well to prepare a plate stored at 4° C. overnight. (4) The plate was washed three times with PBST, and an antibody diluted to 2 μg/ml was added thereto at 50 μL/well, followed by shaking at room temperature for 1 hour. (5) The plate was washed three times with PBST, and an Anti-Mouse IgG POD antibody diluted about 5000 fold with Buffer I′ (10 mM NaH₂PO₄.2H₂O, 149.7 mM NaCl, 2.5 mM EDTA 2Na, 0.10% BSA, pH 7.0) was added thereto at 50 μL/well, followed by shaking at room temperature for 1 hour. (6) The plate was washed three times with PBST, TMB Mix (1-step Ultra TMB-ELISA (Thermo Scientific):3% H₂O₂: Phosphate-Citrate buffer (Sigma)=15:0.15:14.85) was added thereto at 100 μL/well, and the mixture was reacted at room temperature for 10 minutes. Thereafter, 1 M H₂SO₄ was added thereto at 100 μL/well to stop the reaction. (7) Absorbance of the reaction solution at 450 nm was measured with a plate reader.

fCK18 concentration detectable (S/N ratio of 2 or more) [1] | fold detection sensitivity compared with Comparative Example 1 (M30 antibody) [1] | Abs450 (Peptide 5) | Binder
≥ 0.09 ng/mL | ~24 fold |  | K18-624 antibody (antibody, V domains shown, Mouse monoclonal antibody from a hybridoma (Balb/C mouse immunised with Peptide 1-KLH)) VH: DVQLVESGGGLVQPGGSRKLSCAASGFTFSSFGMHWVRQAPEKGLEWVAYISSGSTTIYYADTVKGRFTISRDNPKNTLFLQMTSLRSEDTAMYYCARRGMITTGAWFAYWGQGTLVTVSA VL: DILLTQSPAILSVSPGERVSFSCRASQRIGTSIHWYQQRTNGSPRLLIKYASESISGIPSRFSGSGSGTDFTLSINSVESEDIADYYCQQSYIWPFTFGSGTKLEIK
 |  | -0.01 | K18-328 antibody (antibody, V domains shown, Mouse monoclonal antibody from a hybridoma (immunogen full length rCK18)) VH: QVHLQQSAAELARPGASVKMSCKASGYTFTNYTIHWIKQRPGQGLEWIGYINPSSGYTDYNQNFKDKTTLTADKSSTTVYMQLSSLTSEDSAVYYCARQIPFAYWGQGTLVTVSA VL: not shown
